The values that follow come from publication PMC4875570.

Usually Ki stands for a dissociation constant, usually derived from enzyme kinetics or from competition with a known ligand.

The target of assay [1] is severe acute respiratory syndrome (SARS) coronavirus papain-like protease (PLpro), wild type (SARS coronavirus) (UniProt P0C6X7).
Assay [2] has the same target. The experiment in a line: inhibition of AMC substrate cleavage.

Several values for one entry are separate records, joined by “and”; a condition that tells them apart may be missing. Identical values can stand only once.

Consider “triazole-linked diUb^Lys48-AMC (from UniProt P0CG48) (complex)”, for which, in assay [1], the KM of triazole-linked diUb^Lys48-AMC cleavage turned out to be 33.4 µM.
As for “Lys48-linked tri-ubiquitin (triUb^Lys48), free chain (from UniProt P0CG48 1-76) (complex)”, in assay [2], the Ki was 10.6 µM and 10.1 µM and 4.08 µM.
Regarding monoUb-AMC (from UniProt P0CG48 1-76), in assay [1], the KM of monoUb-AMC cleavage was determined as 15.1 µM and the apparent kcat/KM of monoUb-AMC cleavage (Michaelis-Menten kinetics) was found to be 33300 M⁻¹ s⁻¹.
Consider ISG15-AMC, for which, in assay [1], the KM of ISG15-AMC cleavage came to 15.9 µM and the apparent kcat/KM of ISG15-AMC cleavage (Michaelis-Menten kinetics) is 598000 M⁻¹ s⁻¹.
